Reference: patent US20040048790A1
pIC50: −log10 of the molar value.

Assays:
HLA-A*2401 (human) = test: competition vs 125I-labelled probe peptide, purified HLA, gel filtration; conditions: scale: ratio to standard peptide
HLA-A*0201 (human) = test: 125I-probe peptide inhibition, purified HLA
HLA-A*0301 (human) [1] = test: competition with 125I-labelled probe peptide for purified HLA-A*0301
HLA-A*0206 (human) = test: 125I-probe peptide inhibition, purified HLA
HLA-A*0301 (human) [2] = test: 125I-probe peptide inhibition, purified HLA
HLA-A*6801 (human) = test: 125I-probe peptide inhibition, purified HLA

relative binding ratio (HLA-A*2401 (human))	Substance	also measured
0.12	p53 peptide, position 102, 10 amino acids	–
0.0001	p53 peptide, position 340, 9 amino acids	–
–	p53.129 (9-mer) (peptide)	pIC50 (HLA-A*0201 (human)): 6.13
0.02	p53 peptide, position 106, 9 amino acids	–
–	p53 peptide, position 311, 10 amino acids	relative binding ratio (HLA-A*0301 (human) [1]): 0.0035
–	p53.65 (10-mer) (peptide)	pIC50 (HLA-A*0206 (human)): 6.08
0.0001	p53 peptide, position 117, 10 amino acids	–
0.11	p53 peptide, position 102, 8 amino acids	–
–	p53.240 (9-mer …) (peptide)	pIC50 (HLA-A*0301 (human) [2]): 6.26
-0.0004	p53 peptide, position 337, 8 amino acids	–
-0.0003	p53 peptide, position 22, 11 amino acids	–
0.0016	p53 peptide, position 18, 8 amino acids	–
0.001	p53 peptide, position 204, 9 amino acids	–
0.0023	p53 peptide, position 43, 11 amino acids	–
0.001	p53 peptide, position 18, 9 amino acids	–
–	p53.273 (8-mer) (peptide)	pIC50 (HLA-A*6801 (human)): 6.24
0.028	p53 peptide, position 106, 8 amino acids	–
5.1	p53 peptide, position 125, 10 amino acids	–
